Two molecules from patent US20040229310A1 (Genentech, published 2004) can be followed below.

By Kd is commonly meant the constant that tells how readily two partners part at equilibrium. High values mean lower affinity, low ones higher affinity.

The target of experiment [1] is T1, VEGF (UniProt P15692-4 27-191, limits assumed).
T1 construct: Coupled covalently to the biosensor chip; also called VEGF antigen; VEGF (109)
The experiment is described as follows: BIAcore SPR, VEGF coupled to the chip, full-length antibody injected; Kd = koff/kon; original FR1 subgroup III sequence (pxVG11VNERK). The protocol: (§1) The VEGF-binding affinities of full length antibodies produced in bacterial cells were calculated from association and disassociation rate constants measured using a BIAcore™-2000 surface plasmon resonance system (BIAcore, Inc., Piscataway, N.J.) as described in Chen et al, (1999) J. Mol. Bio. 293:865-881). A biosensor chip was activated for covalent coupling of VEGF using N-ethyl-N′-(3-dimethylaminopropyl)-carbo-dimide hydrochloride (EDC) and N-hydroxysuccinimid (NHS) according to the supplier's (BIAcore, Inc., Piscataway, N.J.) instructions. VEGF (109) or VEGF (165) was buffer-exchanged into 20 mM sodium acetate, pH 4.8 and diluted to approximately […] to achieve approximately 700-1400 response units (RU) of coupled protein. A solution of 1 M ethanolamine was injected as a blocking agent.
(§2) For kinetics measurements, twofold serial dilutions of full length antibodies were injected in PBS/Tween buffer (0.05% Tween-20 in phosphate-buffered saline) at 25° C. or 37° C. at a flow rate of 10 μl/minute. Equilibrium dissociation constants, Kd values from SPR measurements were calculated as koff/kₒₙ.
(§3) To determine if the FR1 subgroup substitutions had any effect on the binding affinity for VEGF antigen, an affinity assay was performed using the expressed antibodies obtained from bacterial cells.
For orientation: Surface plasmon resonance follows binding to a sensor surface in real time, without labels.

In experiment [2] the target is T1, VEGF. The experiment is described as follows: BIAcore SPR, VEGF coupled to the chip, full-length antibody injected; Kd = koff/kon; subgroup I sequence substitution (pVKFR1-2). As for the experimental part:
as §1, §2, §3

T1 sequence (P15692 other isoform, or with tags, fused parts or gaps limits assumed): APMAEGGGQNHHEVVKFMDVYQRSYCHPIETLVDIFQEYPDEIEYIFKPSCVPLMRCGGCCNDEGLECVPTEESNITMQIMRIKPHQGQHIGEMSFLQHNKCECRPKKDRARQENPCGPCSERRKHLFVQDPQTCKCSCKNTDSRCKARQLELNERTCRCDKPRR

B1: anti-VEGF antibody VNERK with heavy chain FR1 subgroup III sequence (plasmid pxVG11VNERK) (antibody, V domains shown)
VH: EVQLVESGGGLVQPGGSLRLSCAASGYTFTNYGINWVRQAPGKGLEWVGWINTYTGEPTYAADFKRRFTFSLDTSKSTAYLQMNSLRAEDTAVYYCAKYPHYYVNERKSHWYFDVWGQGTLVTVSS
VL: DIQLTQSPSSLSASVGDRVTITCSASQDISNYLNWYQQKPGKAPKVLIYFTSSLHSGVPSRFSGSGSGTDFTLTISSLQPEDFATYYCQQYSTVPWTFGQGTKVEIKR
notes: Full-length humanized antibody made in E. coli (aglycosylated); also called anti-VEGF (VNERK); xVEGF (VNERK)
On to B1, for which the Kd in experiment [1] came to 0.12 nM.

B2: anti-VEGF antibody VNERK with heavy chain FR1 subgroup I consensus sequence (plasmid pVKFR1-2) (antibody, V domains shown)
VH: QVQLVQSGAEVKKPGASVKVSCKASGYTFTNYGINWVRQAPGKGLEWVGWINTYTGEPTYAADFKRRFTFSLDTSKSTAYLQMNSLRAEDTAVYYCAKYPHYYVNERKSHWYFDVWGQGTLVTVSS
VL: B1 VL
notes: Full-length antibody made in E. coli; differs from VNERK (pxVG11VNERK) by 12 substitutions in heavy chain FR1 (subgroup III to subgroup I); also called pVKFR1-2 (FR1 = SGI); VNERK HCFR1=SGI
Take B2: in experiment [2], the Kd was determined as 0.19 nM.
